{"source": "patent US20020160955A1", "binders": {"B1": {"name": "human IGFBP-1, P08833 26-259 (protein, UniProt P08833 26-259, looked up)", "chain": "APWQCAPCSAEKLALCPPVSASCSEVTRSAGCGCCPMCALPLGAACGVATARCARGLSCRALPGEQQPLHALTRGQGACVQESDASAPHAAEAGSPESPESTEITEEELLDNFHLMAPSEEDHSILWDAISTYDGSKALHVTNIKKWKEPCRIELYRVVESLAKAQETSGEEISKFYLPNCNKNGFYHSRQCETSMDGEAGLCWCVYPWNGKRIPGSPEIRGDPNCQIYFNVQN"}}, "target": "T1, IGF-I F49A (G1S-A70V background) displayed on phage (human; bacteriophage M13)", "T1 chain": "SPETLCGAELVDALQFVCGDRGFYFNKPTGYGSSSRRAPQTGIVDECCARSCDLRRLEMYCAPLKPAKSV", "assay": "competitive phage ELISA; IC50mut/IC50 G1S-A70V", "conditions": "remark: other sources report otherwise"}
{"binder": "B1", "values": [{"measurement": "relative IC50", "value": "> 100"}]}
